± gives the standard deviation of the averaged measurements.
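Note: PSI is a weighted mean of sequencing reads over stability bins, variants kept only with over 10 reads, mCherry proximal and sfGFP distal, peptide attached via GGGS linker.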

In the series the test system is Saccharomyces cerevisiae. The series is described as follows: protein stability index of tFT-peptide fusion (C-terminal peptide) (PSI (0-1 scale)); higher = more stable (slower turnover). To be noted: genetic background: wild type; temperature: 30 C.
LWLCLCCSPFFV registered a protein stability index of 0.658 ± 0.1. In turn, LWTASISVAEVR registered a protein stability index of 0.633 ± 0.012.

LWVGVVGGVRGV returned a protein stability index of 0.598 ± 0.1. The sequence LWVREVVVVGTV gave a protein stability index of 0.519 ± 0.013. Then LWVSGARTTGYF, with 0.756 ± 0.048; and LYHPRLAPLPRT, with 0.627 ± 0.042; and LYIPQKRGLSLH, with 0.62 ± 0.021. LYITLLEFKEGR came in with a protein stability index of 0.643 ± 0.025. LYKKRSCCLSPL showed a protein stability index of 0.714 ± 0.053. In the case of LYMSRYLQLNFG, the protein stability index worked out at 0.653 ± 0.005. LYNFLFLLPYSL had a protein stability index of 0.647 ± 0.13. Take LYPDTDSLTPLP: the protein stability index worked out at 0.725 ± 0.05. Then LYPPVYRPVLSL, with 0.6626 ± 0.0029.

Take LYQRCVCSFREK: the protein stability index was determined as 0.639 ± 0.016. LYSGADPLPWGR gave a protein stability index of 0.716 ± 0.01.

On to LYSSMFCGTFLL, for which the protein stability index stood at 0.605 ± 0.048. LYSSPSLQSPNP showed a protein stability index of 0.613 ± 0.021. For the sequence LYVARVGQCVRD, the protein stability index was 0.686 ± 0.029.

Turning to MAVDSVIISAVF, the protein stability index worked out at 0.592 ± 0.096. Then MAVVSDDRDINC, with 0.681 ± 0.056. The same measure for MCLSYLSIFLSL: 0.548 ± 0.065; for MCLTPLWYPSSA: 0.709 ± 0.03; for MDGAVRRCLVRG: 0.666 ± 0.062. Take MEAERRKEGENS: the protein stability index came out at 0.673 ± 0.072. The same measure for MERAGTADGGGA: 0.662 ± 0.016. With MESGGVGRVVWR, the protein stability index was 0.655 ± 0.079. MGGCGARAVVVG yielded a protein stability index of 0.6196 ± 0.0032. Consider MGRQSCCHKTSG, for which the protein stability index came out at 0.643 ± 0.042. Sequence MGSGRGVITTKG had a protein stability index of 0.704 ± 0.0077. As to MGVYAVVGTHGV, the protein stability index turned out to be 0.687 ± 0.079. Consider MIFCSPPPLFFP, for which the protein stability index was determined as 0.7 ± 0.0013. In turn, MIIPTVLCRVDL registered a protein stability index of 0.661 ± 0.022. MKASRREDLCEP gave a protein stability index of 0.62 ± 0.065. In turn, MLLSKRHFESDV displayed a protein stability index of 0.692 ± 0.018. MLSPQIERGAGR displayed a protein stability index of 0.681 ± 0.018. On to MNERDKGKIKKQ, for which the protein stability index was determined as 0.6974 ± 0.0069. The same measure for MNLVEIIRGVRL: 0.7063 ± 0.0051.

With MNVASCRGREYV, the protein stability index came out at 0.686 ± 0.032. Then MPFYPSLLTSLL, with 0.678 ± 0.014; and MPLPRQTSAPRP, with 0.665 ± 0.019. In the case of MPSRTYPSPPLG, the protein stability index is 0.693 ± 0.03. MSHISPFPIFPC came in with a protein stability index of 0.686 ± 0.0074. The sequence MSKGKKKGVKRK displayed a protein stability index of 0.703 ± 0.013. In turn, MSLSLLSLFSSL showed a protein stability index of 0.606 ± 0.027.

As to MTYKSKNRATEE, the protein stability index was 0.648 ± 0.025.

The sequence NAVCCGKWRGGS returned a protein stability index of 0.714 ± 0.11.

On to NCGGQGKEDGCK, for which the protein stability index is 0.621 ± 0.013.

The sequence NEGRRNSRRHGG displayed a protein stability index of 0.683 ± 0.028.

Consider NEHTTLKITKNK, for which the protein stability index was determined as 0.6818 ± 0.003.

NEIENYKDIIEK: the protein stability index came to 0.684 ± 0.011. As for NESGWHNLLMSV, the protein stability index was determined as 0.708 ± 0.0097. NESLKHDCVKDT had a protein stability index of 0.735 ± 0.13. NETVIATLGKGA: the protein stability index amounted to 0.657 ± 0.037. In the case of NEYFYINVRNRV, the protein stability index is 0.6743 ± 0.0017. For the sequence NFAFPWTSTHAF, the protein stability index is 0.699 ± 0.017.

For NFLVNGRASLKV, the protein stability index stood at 0.583 ± 0.016. The same measure for NGGRCRIARVLE: 0.679 ± 0.023; for NGGRSATGSVVV: 0.701 ± 0.066; for NGLPGNLYAGKT: 0.6558 ± 0.0062.

Take NGPAPTFSPAVR: the protein stability index was 0.685 ± 0.032. As to NHETRNCEGINS, the protein stability index is 0.657 ± 0.026. In the case of NHRETNRNRGKL, the protein stability index was 0.75295 ± 0.00072. The same measure for NHTKAGTEKNKN: 0.618 ± 0.067. Turning to NIIRGVIAGNPA, the protein stability index was determined as 0.747 ± 0.026.
